This is an account of results in patent publication US20240368242A1.

The target of this test is recombinant murine CD40 protein (murine) (UniProt P27512). The test can be described thus: SPR, binding to mCD40.
recombinant murine CD40 protein (murine), sequence (P27512 24-193 limits assumed): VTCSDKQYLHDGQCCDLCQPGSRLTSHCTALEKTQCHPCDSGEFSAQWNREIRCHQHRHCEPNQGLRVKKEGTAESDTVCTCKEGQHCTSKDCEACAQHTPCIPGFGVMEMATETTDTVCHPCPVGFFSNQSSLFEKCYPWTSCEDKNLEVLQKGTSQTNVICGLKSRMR

B1: mCD40L-Fc (Fc fusion, from a related filing)
chain: MQRGDEDPQIAAHVVSEANSNAASVLQWAKKGYYTMKSNLVMLENGKQLTVKREGLYYVYTQVTFCSNREPSSQRPFIVGLWLKPSSGSERILLKAANTHSSSQLCEQQSVHLGGVFELQAGASVFVNVTEASQVIHRVGFSSFGLLKL
modifications: left off: a dimerising Fc or GST
As a reminder, the Kd is the concentration at which binding is half-saturated. Usually koff stands for the first-order rate constant of dissociation. As a reminder, the kon is the rate constant with which the complex forms. B1: the Kd worked out at 3.23 nM, the koff stood at 9.81e-05 s⁻¹ and the kon worked out at 30400 M⁻¹ s⁻¹.
